Columns and labels:
[1] = target: T1, arylalkylamine N-acetyltransferase like 7 (AANATL7) (Drosophila melanogaster, UniProt Q9W4Y1); experiment: dead-end inhibition kinetics; type: biochemical
[2] = target: T1, arylalkylamine N-acetyltransferase like 7 (AANATL7); experiment: intrinsic protein fluorescence quenching; type: binding
[3] = target: arylalkylamine N-acetyltransferase like 7 (AANATL7) (Drosophila melanogaster, UniProt Q9W4Y1, R138A); experiment: intrinsic protein fluorescence quenching; type: binding
purified protein = substrate: CC(=O)SCCNC(=O)CCNC(=O)[C@H](O)C(C)(C)COP(=O)(O)OP(=O)(O)OC[C@H]1O[C@@H](n2cnc3c(N)ncnc32)[C@H](O)[C@@H]1OP(=O)(O)O; experiment: purified protein; conditions: binds first in ordered sequential mechanism; pH 8.0
[4] = substrate: CCCC(=O)SCCNC(=O)CCNC(=O)[C@H](O)C(C)(C)COP(=O)(O)OP(=O)(O)OC[C@H]1O[C@@H](n2cnc3c(N)ncnc32)[C@H](O)[C@@H]1OP(=O)(O)O; experiment: steady-state kinetics, Km,app; type: biochemical, Drosophila melanogaster; conditions: pH 8.0
[5] = substrate: NCCc1c[nH]c2ccccc12; experiment: steady-state kinetics, Km,app; type: biochemical, Drosophila melanogaster; conditions: acetyl-CoA; pH 8.0
[6] = substrate: NCCc1c[nH]c2ccc(OCc3ccccc3)cc12; experiment: steady-state kinetics, Km,app; type: biochemical, Drosophila melanogaster; conditions: acetyl-CoA; pH 8.0
[7] = substrate: NCCc1ccc(O)cc1; experiment: steady-state kinetics, Km,app; type: biochemical, Drosophila melanogaster; conditions: acetyl-CoA; pH 8.0

OCCc1ccc(O)cc1 [tyrosol]
Ki [1]: 430 ± 20 µM

CC(C)(COP(=O)(O)OP(=O)(O)OC[C@H]1O[C@@H](n2cnc3c(N)ncnc32)[C@H](O)[C@@H]1OP(=O)(O)O)[C@@H](O)C(=O)NCCC(=O)NCCS [coenzyme A]
Kd [2]: 530 ± 110 µM
Kd [3]: 1100 ± 200 µM

CCCCCCCC/C=C\CCCCCCCC(=O)SCCNC(=O)CCNC(=O)[C@H](O)C(C)(C)COP(=O)(O)OP(=O)(O)OC[C@H]1O[C@@H](n2cnc3c(N)ncnc32)[C@H](O)[C@@H]1OP(=O)(O)O [oleoyl-CoA]
Ki [1]: 0.2 ± 0.01 µM

B1: arylalkylamine N-acetyltransferase like 7 (AANATL7) (Drosophila melanogaster) (protein)
chain: MEYKMIAPEHSEQVMEHLRRNFFADEPLNKAAGLCQNGSSCPALEAHCAEAIQHRMSVMAVDAKEKDTLKIVGVVLNGILKPGDTAKALSKLDCNDDADFRKIFDLLHRHNLKHNLFEHFDVDCMFDVRILSVDSCYRGQGIANELVKRSVAVAKKNGFRLLKADATGIFSQKIFRSHGFEVFSEQPYSKYTDENGKVILPVEAPHIKLQQLYKAICADDQDEKKQSL
Km (purified protein): 29 ± 2 µM
kcat (purified protein): 32 s⁻¹
kcat/Km (purified protein): 1.1e+06 M⁻¹ s⁻¹
Km [4]: 6 ± 1 µM
kcat [4]: 0.66 ± 0.02 s⁻¹
kcat/Km [4]: 110000 ± 20000 M⁻¹ s⁻¹
Km [5]: 26 ± 2 µM
kcat [5]: 16 ± 0.3 s⁻¹
kcat/Km [5]: 600000 ± 40000 M⁻¹ s⁻¹
Km [6]: 9 ± 1 µM
kcat [6]: 5.7 ± 0.1 s⁻¹
kcat/Km [6]: 630000 ± 40000 M⁻¹ s⁻¹
Km [7]: 42 ± 2 µM
